From paper PMC12776482, “Structural and Functional Analysis of GGPPS Inhibition as a Therapeutic Mechanism for Acute Myeloid Leukemia (AML)” (Research Square, 2025)

Target: the molecule itself
Assay: mass photometry; purified wild-type recombinant human GGPPS in solution; conditions not shown (Fig. S2)

B1: wild-type recombinant human geranylgeranyl pyrophosphate synthase (GGPPS) (enzyme)
chain: MEKTQETVQRILLEPYKYLLQLPGKQVRTKLSQAFNHWLKVPEDKLQIIIEVTEMLHNASLLIDDIEDNSKLRRGFPVAHSIYGIPSVINSANYVYFLGLEKVLTLDHPDAVKLFTRQLLELHQGQGLDIYWRDNYTCPTEEEYKAMVLQKTGGLFGLAVGLMQLFSDYKEDLKPLLNTLGLFFQIRDDYANLHSKEYSENKSFCEDLTEGKFSFPTIHAIWSRPESTQVQNILRQRTENIDIKKYCVHYLEDVGSFEYTRNTLKELEAKAYKQIDARGGNPELVALVKHLSKMFKEENE
notes: human geranylgeranyl pyrophosphate synthase (GGPPS, GGPS1), wild type; His6 tag removed with TEV protease; also called GGPP synthase; hGGPPS; source: E. coli (BL21 DE3), purified (Ni-NTA, TEV cleavage, second Ni-NTA, Superdex 200); not shown: His6, N-terminal, cleaved
In the case of B1, the “stoichiometry N” value is reported as 6.
